The target of experiment [1] is Halichondria panicea ferritin HpF1 (Halichondria panicea (endogenous in sponge body tissue)). In words: native gel or EMSA; sponge body tissue homogenates (20 mM EDTA, 50 mM Hepes-Na pH 7.2, 200 mM NaCl, 4 °C) on a native 3.5-10% polyacrylamide gradient gel in 50 mM Bis-Tris-glycine pH 8.0; Prussian blue staining and UV 360 nm absorbance; markers horse ferritin (440 kDa) and thyroglobulin (670 kDa); high molecular mass bands cut out and identified by MALDI/TOF mass spectrometry. A general note: A gel shift assay detects complexes by their altered migration in electrophoresis.

The target in experiment [2] is Halisarca dujardini ferritin HdF1a/b (Halisarca dujardini (endogenous in sponge body tissue)). The experiment is described as above.

What is called stoichiometry N is the number of molecules, sites or subunits per partner or assembly. Consider “Halichondria panicea ferritin HpF1 (natural protein)”, for which the stoichiometry N in experiment [1] worked out at 24 subunits.

“Halisarca dujardini ferritin HdF1a/b (natural protein)”: the stoichiometry N in experiment [2] turned out to be 24 subunits.

Values taken from article PMC8395497.
